From US20180171024A1
Blank lines part the entries; values can stand above or below the substance they belong to.

Assays:
[1] = biological target: HLA-A2/WT1 126-134 complex on T2 cells (human); experiment: flow cytometry, T2 cells loaded with WT1 peptide 1x10e-4M
[2] = biological target: HLA-A2/WT1 126-134 complex on T2 cells (human); experiment: flow cytometry, T2 cells loaded with WT1 peptide 1x10e-5M
[3] = biological target: HLA-A2/WT1 126-134 complex on T2 cells (human); experiment: flow cytometry, T2 cells loaded with 10^-4 M WT1 peptide
[4] = biological target: HLA-A2 on other WT1 negative HLA-A2+ cells (other than 501, A498 and SKMEL; members not named); experiment: flow cytometry on JVM-2 cells (WT1 mRNA -)
[5] = biological target: HLA-A2 on HLA-A2+ cells that do not express WT1 (tumor cell lines, normal primary cells); experiment: flow cytometry on SKMEL-5 melanoma cells (WT1 mRNA -)
[6] = biological target: HLA-A2/WT1 126-134 complex on T2 cells (human); experiment: flow cytometry, T2 cells loaded with WT1 1x10e-4M in DMSO
[7] = biological target: HLA-A2 on HLA-A2+ cells that do not express WT1 (tumor cell lines, normal primary cells); experiment: flow cytometry on 501A melanoma cells (WT1 mRNA -)
[8] = biological target: HLA-A2 on HLA-A2+/WT1+ BV173 cells (WT1 mRNA positive; WT1 126-134 peptide not detected by mass spectrometry of eluted HLA peptides); experiment: flow cytometry on BV173 cells (WT1 mRNA +)
[9] = biological target: HLA-A2 on HLA-A2+/WT1+ SET2 cells (WT1 mRNA positive; WT1 126-134 peptide not detected by mass spectrometry of eluted HLA peptides); experiment: flow cytometry on SET-2 cells (WT1 mRNA +)
[10] = biological target: HLA-A2 on other WT1 negative HLA-A2+ cells (other than 501, A498 and SKMEL; members not named); experiment: flow cytometry on IM-9 cells (WT1 mRNA -)
[11] = biological target: HLA-A2 on other WT1 negative HLA-A2+ cells (other than 501, A498 and SKMEL; members not named); experiment: flow cytometry on U266 cells (WT1 mRNA -)
[12] = biological target: Unloaded T2 (Homo sapiens); experiment: flow cytometry, unloaded T2 cells; parameters: reference not given here
[13] = biological target: HLA-A2/MAGE-A4 230-239 complex on cells (human); experiment: flow cytometry, T2 cells loaded with 10^-4 M peptide
[14] = biological target: HLA-A2/PAP 112-120 complex on T2 cells (human); experiment: as above
[15] = biological target: HLA-A2/MAGE-A9 223-231 complex on T2 cells (human); experiment: as above
[16] = biological target: HLA-A2/WT1-S13 on T2 cells (human); experiment: flow cytometry, peptide-loaded T2 cells (10^-4-10^-5 M)
[17] = biological target: HLA-A2/WT1-S6 on T2 cells (human); experiment: as above
[18] = biological target: HLA-A2/WT1-S11 on T2 cells (human); experiment: as above
[19] = biological target: HLA-A2/WT1-S10 on T2 cells (human); experiment: as above
[20] = biological target: HLA-A2/WT1-S22 on T2 cells (human); experiment: as above
[21] = biological target: HLA-A2/WT1-S16 on T2 cells (human); experiment: as above
[22] = biological target: HLA-A2/WT1-S7 on T2 cells (human); experiment: as above
[23] = biological target: HLA-A2 on HLA-A2+ cells that do not express WT1 (tumor cell lines, normal primary cells); experiment: flow cytometry on A498 cells (WT1 mRNA -)
[24] = biological target: HLA-A2/Tyrosinase369-377 complex on cells (human); experiment: flow cytometry, T2 cells loaded with 10^-4 M peptide; parameters: reference not given here
[25] = biological target: P68 … (Homo sapiens); experiment: as above; parameters: reference not given here
[26] = biological target: single-chain recombinant HLA-A2/WT1 126-134 complex (human); experiment: SPR (ProteOn), biotinylated scHLA-A2/WT1 on NeutrAvidin, Fab as analyte; faster dissociation told in words

MFI [1]: 17.9 | MFI [2]: 1.6 | MFI [3]: 18 | MFI [4]: 1 | MFI [5]: 4.3 | MFI [6]: 17.9 | MFI [7]: 10.7 | MFI [8]: 8.1 | MFI [9]: 26.3 | MFI [10]: 1.2 | MFI [11]: 1.9 | MFI [12]: 1 | MFI [13]: 1.1 | MFI [14]: 1.1 | MFI [15]: 1 | MFI [16]: 1.1 | MFI [17]: 5 | MFI [18]: 1.1 | MFI [19]: 1.4 | MFI [20]: 1.1 | MFI [21]: 1.1 | MFI [22]: 3.1 | MFI [23]: 5.2 | MFI [24]: 1 | MFI [25]: 1
Substance: ESK1 TCR-like antibody (IgG)

Kd [26]: 200 nM
Substance: ESK1 TCRL Fab
